Measured values: patent US20250084142A1 (INTARCIA THERAPEUTICS, published 2025)
Starred links: 1 amine or outer side, 2 acyl side, 3 side chain; linkers in the order of their positions; H or OH if unused. Positions of bridges follow the written chain, without caps; N, C: chain ends. Non-standard residues stand in square brackets, D forms with d. Groups on a side chain read outwards from the residue. No end group written: not given here. *: point of attachment. Phe(4-COOH) = N[C@@H](Cc1ccc(C(=O)O)cc1)C(=O)O; C20 diacid = O=C(O)CCCCCCCCCCCCCCCCCCC(=O)*; C19 diacid = O=C(O)CCCCCCCCCCCCCCCCCC(=O)*; C18 diacid = O=C(O)CCCCCCCCCCCCCCCCC(=O)*; γGlu = O=C(O)[C@H](CCC(=O)[*:2])N[*:1]

T1: NPY5R
T1 sequence (Q15761 1-445, species assumed, looked up): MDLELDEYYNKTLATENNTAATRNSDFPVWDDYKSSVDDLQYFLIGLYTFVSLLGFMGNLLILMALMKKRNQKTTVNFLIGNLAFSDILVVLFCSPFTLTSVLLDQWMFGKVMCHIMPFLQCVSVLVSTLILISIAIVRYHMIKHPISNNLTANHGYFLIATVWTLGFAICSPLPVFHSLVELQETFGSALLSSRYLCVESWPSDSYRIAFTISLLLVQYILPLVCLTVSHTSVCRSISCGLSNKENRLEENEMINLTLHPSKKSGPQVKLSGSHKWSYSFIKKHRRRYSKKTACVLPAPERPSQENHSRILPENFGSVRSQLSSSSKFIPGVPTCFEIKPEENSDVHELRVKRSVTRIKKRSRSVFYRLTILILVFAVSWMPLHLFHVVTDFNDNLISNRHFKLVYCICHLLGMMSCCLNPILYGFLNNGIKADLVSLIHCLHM

T2: NPY2R
T2 sequence (P49146 1-381, species assumed, looked up): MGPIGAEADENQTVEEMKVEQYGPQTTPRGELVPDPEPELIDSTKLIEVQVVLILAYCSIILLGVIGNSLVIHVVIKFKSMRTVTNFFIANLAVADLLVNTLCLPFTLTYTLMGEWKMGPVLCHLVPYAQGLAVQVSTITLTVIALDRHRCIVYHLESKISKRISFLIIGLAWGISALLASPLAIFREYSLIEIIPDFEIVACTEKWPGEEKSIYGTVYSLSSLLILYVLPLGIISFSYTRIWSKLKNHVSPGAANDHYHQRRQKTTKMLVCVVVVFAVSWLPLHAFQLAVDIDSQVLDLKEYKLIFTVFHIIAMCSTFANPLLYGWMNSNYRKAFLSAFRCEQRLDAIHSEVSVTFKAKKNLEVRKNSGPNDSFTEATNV


Assays:
NPY5R = target: T1, NPY5R; assay: cell-based or functional assay
NPY2R = target: T2, NPY2R; assay: cell-based or functional assay

| Binder | NPY5R pEC50 (NPY5R) | NPY2R pEC50 (NPY2R) |
| --- | --- | --- |
| PKPEAPGK([γGlu-γGlu-C20 diacid])DASPEEWERYYKDLRHYLNWLTRQRF-NH2 (lactam 16-20) [Compound A41] | 9.3 -Log(EC50, M) | 10.5 -Log(EC50, M) |
| PKPEAPGK([γGlu-γGlu-C20 diacid])DASPEEWDRYYKDLRHYLNWLTRQRF-NH2 (lactam 16-20) [Compound A42] | 9.1 -Log(EC50, M) | 10.3 -Log(EC50, M) |
| PKPEKPGK([γGlu-γGlu-C19 diacid])DASPKEWDRYYKDLRHYLNWLTRQRF-NH2 (lactam 16-20; N-terminus assumed; SMILES CC(C)C[C@H](NC(=O)[C@H](CC(=O)O)NC(=O)[C@@H]1CCCCNC(=O)C[C@H](NC(=O)[C@H](Cc2c[nH]c3ccccc23)NC(=O)[C@H](CCC(=O)O)NC(=O)[C@H](CCCCN)NC(=O)[C@@H]2CCCN2C(=O)[C@H](CO)NC(=O)[C@H](C)NC(=O)[C@H](CC(=O)O)NC(=O)[C@H](CCCCNC(=O)CC[C@H](NC(=O)CC[C@H](NC(=O)CCCCCCCCCCCCCCCCCC(=O)O)C(=O)O)C(=O)O)NC(=O)CNC(=O)[C@@H]2CCCN2C(=O)[C@H](CCCCN)NC(=O)[C@H](CCC(=O)O)NC(=O)[C@@H]2CCCN2C(=O)[C@H](CCCCN)NC(=O)[C@@H]2CCCN2)C(=O)N[C@@H](CCCNC(=N)N)C(=O)N[C@@H](Cc2ccc(O)cc2)C(=O)N[C@@H](Cc2ccc(O)cc2)C(=O)N1)C(=O)N[C@@H](CCCNC(=N)N)C(=O)N[C@@H](Cc1c[nH]cn1)C(=O)N[C@@H](Cc1ccc(O)cc1)C(=O)N[C@@H](CC(C)C)C(=O)N[C@@H](CC(N)=O)C(=O)N[C@@H](Cc1c[nH]c2ccccc12)C(=O)N[C@@H](CC(C)C)C(=O)N[C@H](C(=O)N[C@@H](CCCNC(=N)N)C(=O)N[C@@H](CCC(N)=O)C(=O)N[C@@H](CCCNC(=N)N)C(=O)N[C@@H](Cc1ccccc1)C(N)=O)[C@@H](C)O) [Compound A40] | 9 -Log(EC50, M) |  |
| PKPEK([γGlu-γGlu-C20 diacid])PGKDASPKEWNRYYKDLRHYLNWLTRQRF-NH2 (N-terminus assumed; SMILES CC(C)C[C@H](NC(=O)[C@H](CC(=O)O)NC(=O)[C@H](CCCCN)NC(=O)[C@H](Cc1ccc(O)cc1)NC(=O)[C@H](Cc1ccc(O)cc1)NC(=O)[C@H](CCCNC(=N)N)NC(=O)[C@H](CC(N)=O)NC(=O)[C@H](Cc1c[nH]c2ccccc12)NC(=O)[C@H](CCC(=O)O)NC(=O)[C@H](CCCCN)NC(=O)[C@@H]1CCCN1C(=O)[C@H](CO)NC(=O)[C@H](C)NC(=O)[C@H](CC(=O)O)NC(=O)[C@H](CCCCN)NC(=O)CNC(=O)[C@@H]1CCCN1C(=O)[C@H](CCCCNC(=O)CC[C@H](NC(=O)CC[C@H](NC(=O)CCCCCCCCCCCCCCCCCCC(=O)O)C(=O)O)C(=O)O)NC(=O)[C@H](CCC(=O)O)NC(=O)[C@@H]1CCCN1C(=O)[C@H](CCCCN)NC(=O)[C@@H]1CCCN1)C(=O)N[C@@H](CCCNC(=N)N)C(=O)N[C@@H](Cc1c[nH]cn1)C(=O)N[C@@H](Cc1ccc(O)cc1)C(=O)N[C@@H](CC(C)C)C(=O)N[C@@H](CC(N)=O)C(=O)N[C@@H](Cc1c[nH]c2ccccc12)C(=O)N[C@@H](CC(C)C)C(=O)N[C@H](C(=O)N[C@@H](CCCNC(=N)N)C(=O)N[C@@H](CCC(N)=O)C(=O)N[C@@H](CCCNC(=N)N)C(=O)N[C@@H](Cc1ccccc1)C(N)=O)[C@@H](C)O) [Compound A37] | 8.6 -Log(EC50, M) | 10.8 -Log(EC50, M) |
| PKPEK([γGlu-γGlu-C18 diacid])PGEDASPKEWNRYYKDLRHYLNWLTRQRF-NH2 (N-terminus assumed; SMILES CC(C)C[C@H](NC(=O)[C@H](CC(=O)O)NC(=O)[C@H](CCCCN)NC(=O)[C@H](Cc1ccc(O)cc1)NC(=O)[C@H](Cc1ccc(O)cc1)NC(=O)[C@H](CCCNC(=N)N)NC(=O)[C@H](CC(N)=O)NC(=O)[C@H](Cc1c[nH]c2ccccc12)NC(=O)[C@H](CCC(=O)O)NC(=O)[C@H](CCCCN)NC(=O)[C@@H]1CCCN1C(=O)[C@H](CO)NC(=O)[C@H](C)NC(=O)[C@H](CC(=O)O)NC(=O)[C@H](CCC(=O)O)NC(=O)CNC(=O)[C@@H]1CCCN1C(=O)[C@H](CCCCNC(=O)CC[C@H](NC(=O)CC[C@H](NC(=O)CCCCCCCCCCCCCCCCC(=O)O)C(=O)O)C(=O)O)NC(=O)[C@H](CCC(=O)O)NC(=O)[C@@H]1CCCN1C(=O)[C@H](CCCCN)NC(=O)[C@@H]1CCCN1)C(=O)N[C@@H](CCCNC(=N)N)C(=O)N[C@@H](Cc1c[nH]cn1)C(=O)N[C@@H](Cc1ccc(O)cc1)C(=O)N[C@@H](CC(C)C)C(=O)N[C@@H](CC(N)=O)C(=O)N[C@@H](Cc1c[nH]c2ccccc12)C(=O)N[C@@H](CC(C)C)C(=O)N[C@H](C(=O)N[C@@H](CCCNC(=N)N)C(=O)N[C@@H](CCC(N)=O)C(=O)N[C@@H](CCCNC(=N)N)C(=O)N[C@@H](Cc1ccccc1)C(N)=O)[C@@H](C)O) [Compound A38] | 8.4 -Log(EC50, M) |  |

Results, then the binder that gave them:

| NPY5R pEC50 (NPY5R) | NPY2R pEC50 (NPY2R) | Binder |
| --- | --- | --- |
| 9.3 -Log(EC50, M) |  | PKPEKPGK([γGlu-γGlu-C20 diacid])DASPEEWSRYYKDLRHYLNWLTRQRF-NH2 (N-terminus assumed; SMILES CC(C)C[C@H](NC(=O)[C@H](CC(=O)O)NC(=O)[C@H](CCCCN)NC(=O)[C@H](Cc1ccc(O)cc1)NC(=O)[C@H](Cc1ccc(O)cc1)NC(=O)[C@H](CCCNC(=N)N)NC(=O)[C@H](CO)NC(=O)[C@H](Cc1c[nH]c2ccccc12)NC(=O)[C@H](CCC(=O)O)NC(=O)[C@H](CCC(=O)O)NC(=O)[C@@H]1CCCN1C(=O)[C@H](CO)NC(=O)[C@H](C)NC(=O)[C@H](CC(=O)O)NC(=O)[C@H](CCCCNC(=O)CC[C@H](NC(=O)CC[C@H](NC(=O)CCCCCCCCCCCCCCCCCCC(=O)O)C(=O)O)C(=O)O)NC(=O)CNC(=O)[C@@H]1CCCN1C(=O)[C@H](CCCCN)NC(=O)[C@H](CCC(=O)O)NC(=O)[C@@H]1CCCN1C(=O)[C@H](CCCCN)NC(=O)[C@@H]1CCCN1)C(=O)N[C@@H](CCCNC(=N)N)C(=O)N[C@@H](Cc1c[nH]cn1)C(=O)N[C@@H](Cc1ccc(O)cc1)C(=O)N[C@@H](CC(C)C)C(=O)N[C@@H](CC(N)=O)C(=O)N[C@@H](Cc1c[nH]c2ccccc12)C(=O)N[C@@H](CC(C)C)C(=O)N[C@H](C(=O)N[C@@H](CCCNC(=N)N)C(=O)N[C@@H](CCC(N)=O)C(=O)N[C@@H](CCCNC(=N)N)C(=O)N[C@@H](Cc1ccccc1)C(N)=O)[C@@H](C)O) [Compound A75] |
| 6 -Log(EC50, M) |  | PKPEAPGK([γGlu-γGlu-C20 diacid])DASPEEWNRYYADLRHYLNWLTRQR[Phe(4-COOH)]-NH2 [Compound A59] |
| 9.2 -Log(EC50, M) | 9.7 -Log(EC50, M) | PKPEAPGK([γGlu-γGlu-C20 diacid])DASPEEWKRYYDDLRHYLNWLTRQRF-NH2 (lactam 16-20) [Compound A44] |
| 8.5 -Log(EC50, M) | 10.5 -Log(EC50, M) | PKPEAPGK([γGlu-γGlu-C20 diacid])DASPEEWKRYYEDLRHYLNWLTRQRF-NH2 (lactam 16-20) [Compound A43] |
